These results are taken from patent US20190233494A1 (Sanofi, published 2019).

Starred links: 1 amine or outer side, 2 acyl side, 3 side chain; linkers in the order of their positions; H or OH if unused. Non-standard residues stand in square brackets, D forms with d. Groups on a side chain read outwards from the residue. *: point of attachment. TTDS = 4-[3-[2-[2-(3-aminopropoxy)ethoxy]ethoxy]propylamino]-4-oxo-butanoyl; γGlu = O=C(O)[C@H](CCC(=O)[*:2])N[*:1]; Stearoyl = CCCCCCCCCCCCCCCCCC(=O)*; Palmitoyl = CCCCCCCCCCCCCCCC(=O)*; AEEA = NCCOCCOCC(=O)O; Aib = CC(C)(N)C(=O)O

To fix the notation:
T1: RXFP1 receptor (endogenous, on OVCAR5 cells) (UniProt Q9HBX9 1-757, limits assumed)
T1 sequence (looked up): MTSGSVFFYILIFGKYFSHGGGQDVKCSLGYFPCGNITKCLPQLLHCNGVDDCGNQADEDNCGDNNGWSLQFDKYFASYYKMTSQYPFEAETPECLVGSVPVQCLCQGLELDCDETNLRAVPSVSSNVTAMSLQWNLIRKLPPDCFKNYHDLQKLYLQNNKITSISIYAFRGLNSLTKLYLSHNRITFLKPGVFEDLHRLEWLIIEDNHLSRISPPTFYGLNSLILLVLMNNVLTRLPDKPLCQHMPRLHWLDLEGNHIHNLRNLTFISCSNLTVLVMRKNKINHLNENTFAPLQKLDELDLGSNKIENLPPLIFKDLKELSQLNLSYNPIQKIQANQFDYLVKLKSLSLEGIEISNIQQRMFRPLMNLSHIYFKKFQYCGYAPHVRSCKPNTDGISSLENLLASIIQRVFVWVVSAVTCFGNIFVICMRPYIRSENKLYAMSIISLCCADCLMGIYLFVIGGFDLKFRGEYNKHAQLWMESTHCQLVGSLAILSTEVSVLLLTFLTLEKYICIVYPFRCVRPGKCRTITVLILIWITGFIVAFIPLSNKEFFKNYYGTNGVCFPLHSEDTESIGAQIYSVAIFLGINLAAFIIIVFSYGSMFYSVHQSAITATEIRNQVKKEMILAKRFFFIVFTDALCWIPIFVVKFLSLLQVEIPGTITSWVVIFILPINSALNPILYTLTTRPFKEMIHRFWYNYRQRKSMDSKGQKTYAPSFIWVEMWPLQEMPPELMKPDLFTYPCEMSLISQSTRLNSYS

B1: peptide of SEQ ID NO: 5 (peptide)
peptide: Ac-LEGREKVRAK(Ac)I[Aib][Aib]EGK([AEEA-AEEA-AEEA-AEEA-γGlu-γGlu-γGlu-Palmitoyl])STWS[Aib]RKK(Ac)-NH2
SMILES: CCCCCCCCCCCCCCCC(=O)N[C@@H](CCC(=O)N[C@@H](CCC(=O)N[C@@H](CCC(=O)NCCOCCOCC(=O)NCCOCCOCC(=O)NCCOCCOCC(=O)NCCOCCOCC(=O)NCCCC[C@H](NC(=O)CNC(=O)[C@H](CCC(=O)O)NC(=O)C(C)(C)NC(=O)C(C)(C)NC(=O)[C@@H](NC(=O)[C@H](CCCCNC(C)=O)NC(=O)[C@H](C)NC(=O)[C@H](CCCNC(=N)N)NC(=O)[C@@H](NC(=O)[C@H](CCCCN)NC(=O)[C@H](CCC(=O)O)NC(=O)[C@H](CCCNC(=N)N)NC(=O)CNC(=O)[C@H](CCC(=O)O)NC(=O)[C@H](CC(C)C)NC(C)=O)C(C)C)[C@@H](C)CC)C(=O)N[C@@H](CO)C(=O)N[C@H](C(=O)N[C@@H](Cc1c[nH]c2ccccc12)C(=O)N[C@@H](CO)C(=O)NC(C)(C)C(=O)N[C@@H](CCCNC(=N)N)C(=O)N[C@@H](CCCCN)C(=O)N[C@@H](CCCCNC(C)=O)C(N)=O)[C@@H](C)O)C(=O)O)C(=O)O)C(=O)O

The experiment addresses T1, RXFP1 receptor (endogenous, on OVCAR5 …). The experiment in a line: cell-based or functional assay.
Turning to Ac-LEGREKVRAK(Ac)I[Aib][Aib]EGK([TTDS-TTDS-TTDS-γGlu-γGlu-γGlu-Palmitoyl])SQWS[Aib]RKK(Ac)-NH2 [peptide of SEQ ID NO: 63], the “EC50 (nM), OVCAR 5 cells (cAMP)” value amounted to 1.45 nM and the “EMax, OVCAR 5 cells (cAMP)” value came to 97%.

Regarding B1, the “EC50 (nM), OVCAR 5 cells (cAMP)” value worked out at 9.1 nM and the “EMax, OVCAR 5 cells (cAMP)” value was determined as 85%.

On to Ac-LEGREKVRAK(Ac)I[Aib][Aib]EGK([TTDS-TTDS-γGlu-γGlu-γGlu-Stearoyl])STWS[Aib]RKK(Ac)-NH2 [peptide of SEQ ID NO: 6], for which the “EC50 (nM), OVCAR 5 cells (cAMP)” value stood at 0.27 nM and the “EMax, OVCAR 5 cells (cAMP)” value amounted to 95%.

On to Ac-LEGREKVRAK(Ac)I[Aib][Aib]EGK([TTDS-TTDS-TTDS-γGlu-γGlu-γGlu-γGlu-Palmitoyl])STWS[Aib]RKK(Ac)-NH2 [peptide of SEQ ID NO: 62], for which the “EC50 (nM), OVCAR 5 cells (cAMP)” value turned out to be 0.6 nM and the “EMax, OVCAR 5 cells (cAMP)” value amounted to 98%.

Regarding Ac-LEGREKVRAK(Ac)I[Aib][Aib]EGK([TTDS-TTDS-TTDS-γGlu-γGlu-γGlu-Palmitoyl])STWS[Aib]RKK(Ac)-NH2 [peptide of SEQ ID NO: 1], the “EC50 (nM), OVCAR 5 cells (cAMP)” value stood at 1.5 nM and the “EMax, OVCAR 5 cells (cAMP)” value was 99%.

For Ac-LEGREKVRAK(Ac)I[Aib][Aib]EGK([TTDS-TTDS-TTDS-TTDS-γGlu-γGlu-γGlu-Stearoyl])STFS[Aib]RKK(Ac)-NH2 [peptide of SEQ ID NO: 59], the “EC50 (nM), OVCAR 5 cells (cAMP)” value worked out at 0.09 nM and the “EMax, OVCAR 5 cells (cAMP)” value came out at 99%.

For Ac-LEGREKVRAK(Ac)I[Aib][Aib]EGK([TTDS-TTDS-γGlu-γGlu-γGlu-Stearoyl])STFS[Aib]RKK(Ac)-NH2 [peptide of SEQ ID NO: 60], the “EC50 (nM), OVCAR 5 cells (cAMP)” value worked out at 0.15 nM and the “EMax, OVCAR 5 cells (cAMP)” value was 95%.

As to Ac-LEGREKVRAK(Ac)I[Aib][Aib]EGK([TTDS-TTDS-TTDS-γGlu-γGlu-γGlu-Palmitoyl])SRWS[Aib]RKK(Ac)-NH2 [peptide of SEQ ID NO: 64], the “EC50 (nM), OVCAR 5 cells (cAMP)” value was 0.52 nM and the “EMax, OVCAR 5 cells (cAMP)” value was determined as 95%.

As for Ac-LEGREKVRAK(Ac)I[Aib][Aib]EGK([TTDS-TTDS-TTDS-γGlu-γGlu-γGlu-Stearoyl])STFS[Aib]RKK(Ac)-NH2 [peptide of SEQ ID NO: 61], the “EC50 (nM), OVCAR 5 cells (cAMP)” value is 0.1 nM and the “EMax, OVCAR 5 cells (cAMP)” value amounted to 97%.
